Measured values: patent US20220323599A1 (CELGENE, published 2022)
Read-outs that look alike come from different tables or passages of the source.

What was measured:
[1] = target: T1, cyno BCMA-Fc (custom protein production) (cynomolgus monkey, UniProt Q02223 1-54 (human entry)); test: SPR (Biacore), antibody captured on anti-Fab or anti-Fc surface, cyno BCMA-Fc as analyte, 25 C
T1 construct: also called cynomolgus BCMA-Fc; not shown: Fc part of the fusion protein, not described

[2] = target: T2, human BCMA on cells (endogenous on multiple myeloma cell lines; stably transfected 293T-hBCMA) (human, UniProt Q02223 1-184); test: FACS cell binding, NCI-H929 (BCMA+) cells
T2 construct: also called TNFRSF17; CD269
T2 sequence: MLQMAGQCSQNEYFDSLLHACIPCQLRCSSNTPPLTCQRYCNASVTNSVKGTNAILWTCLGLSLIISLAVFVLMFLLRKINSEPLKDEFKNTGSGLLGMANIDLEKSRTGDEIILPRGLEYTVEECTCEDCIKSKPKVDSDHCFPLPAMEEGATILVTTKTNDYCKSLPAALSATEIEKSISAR

[3] = target: T2, human BCMA on cells (endogenous on …); test: cell-based or functional assay
[4] = target: T3, cynomolgus BCMA on stably transfected 293T cells (cynomolgus monkey, UniProt Q02223 1-184 (human entry)); test: FACS cell binding, 293T-cynoBCMA cells
[5] = target: T4, human BCMA-Fc (R&D Systems) (human, UniProt Q02223 1-54); test: SPR (Biacore), antibody captured on anti-Fab or anti-Fc surface, human BCMA-Fc as analyte, 25 C
T4 construct: Bought protein; not shown: Fc part of the bought fusion protein, not described
T4 sequence: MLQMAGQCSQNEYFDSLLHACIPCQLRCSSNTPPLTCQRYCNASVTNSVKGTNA

[6] = target: T2, human BCMA on cells (endogenous on …); test: flow cytometry, RPMI-8226 cells
[7] = target: T2, human BCMA on cells (endogenous on …); test: flow cytometry, NCI-H929 cells
[8] = target: T2, human BCMA on cells (endogenous on …); test: flow cytometry, U266B1 cells
[9] = target: T2, human BCMA on cells (endogenous on …); test: cell-based or functional assay; remark: listed apart in the source
[10] = target: T2, human BCMA on cells (endogenous on …); test: flow cytometry, ARP-1 cells
[11] = target: T2, human BCMA on cells (endogenous on …); test: cell-based or functional assay; remark: listed apart in the source
[12] = target: T2, human BCMA on cells (endogenous on …); test: cell-based or functional assay; remark: listed apart in the source
[13] = target: T2, human BCMA on cells (endogenous on …); test: flow cytometry, MM.1S cells
[14] = target: T5, human BAFF-R on stably transfected 293T cells (human, UniProt Q96RJ3 1-184); test: flow cytometry on 293T cells stably expressing human BAFF-R
T5 construct: whole, on cells; also called TNFRSF13C

[15] = target: T2, human BCMA on cells (endogenous on …); test: flow cytometry, OPM-2 cells
[16] = target: T2, human BCMA on cells (endogenous on …); test: cell-based or functional assay; remark: listed apart in the source
[17] = target: T3, cynomolgus BCMA on stably transfected …; test: flow cytometry, 293T-cBCMA cells
[18] = target: T6, mouse BCMA on transfected HEK293T cells (mouse, UniProt O88472 1-185); test: flow cytometry on 293T-mBCMA cells
T6 sequence: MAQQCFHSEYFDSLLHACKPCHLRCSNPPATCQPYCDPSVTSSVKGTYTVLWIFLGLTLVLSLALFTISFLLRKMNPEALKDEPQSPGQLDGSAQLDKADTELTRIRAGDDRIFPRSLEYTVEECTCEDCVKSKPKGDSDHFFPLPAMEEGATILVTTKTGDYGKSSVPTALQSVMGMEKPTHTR

[19] = target: T7, human TACI on stably transfected 293T cells (human, UniProt O14836 1-293); test: flow cytometry on 293T cells stably expressing human TACI
T7 construct: whole, on cells; also called TNFRSF13B
T7 sequence (looked up): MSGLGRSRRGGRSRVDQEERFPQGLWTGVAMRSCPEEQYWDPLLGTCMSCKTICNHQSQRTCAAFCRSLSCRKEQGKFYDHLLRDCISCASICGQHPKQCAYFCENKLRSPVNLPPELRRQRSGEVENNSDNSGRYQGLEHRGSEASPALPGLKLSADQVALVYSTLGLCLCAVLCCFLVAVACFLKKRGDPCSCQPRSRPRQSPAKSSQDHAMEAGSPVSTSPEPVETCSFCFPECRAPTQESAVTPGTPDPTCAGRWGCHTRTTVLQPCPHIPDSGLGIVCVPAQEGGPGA

[20] = target: T2, human BCMA on cells (endogenous on …); test: flow cytometry, 293T-hBCMA cells
[21] = target: T2, human BCMA on cells (endogenous on …); test: flow cytometry, NCI-H929 cells; NCI-H929 cells

T3 sequence (Q02223 other isoform, or with tags, fused parts or gaps): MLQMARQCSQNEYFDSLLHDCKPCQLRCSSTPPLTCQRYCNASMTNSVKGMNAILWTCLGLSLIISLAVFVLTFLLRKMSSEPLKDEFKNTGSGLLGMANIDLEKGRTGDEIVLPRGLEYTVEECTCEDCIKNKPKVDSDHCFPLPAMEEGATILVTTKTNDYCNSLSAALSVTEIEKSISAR

B1: 2265-F02 (Fab-HC Variant ID; Antibody 4), cell-free expressed His- and FLAG-tagged IgG1 used in screening (antibody, V domains shown)
VH: EVQLVESGGGLVQPGGSLRLSCAASGFNISAPGIHWVRQAPGKGLEWVGFINPAGGYTDYADSVKGRFTISADTSKNTAYLQMNSLRAEDTAVYYCARDYIRQYWTYVLDYWGQGTLVTVSS
VL: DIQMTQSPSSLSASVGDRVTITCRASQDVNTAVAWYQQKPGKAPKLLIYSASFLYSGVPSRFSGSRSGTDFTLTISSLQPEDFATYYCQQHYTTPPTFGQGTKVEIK
Kd [1]: 3.68 nM
koff [1]: 0.00116 s⁻¹
kon [1]: 315000 M⁻¹ s⁻¹
Kd [2]: 5.2 nM
ARP-1, Conjugate M 2° antibody cell killing, EC50 [3]: 1.9 nM
U266B1, Conjugate M 2° antibody cell killing, EC50 [3]: 0.9 nM
Kd [4]: 6.2 nM
Kd [5]: 0.499 nM
koff [5]: 0.000293 s⁻¹
kon [5]: 587000 M⁻¹ s⁻¹

B2: Conjugate 4: Antibody 2265-F02 conjugated to a non-cleavable maytansine warhead (Conjugate M) at Y180/F404 site (DAR4) (antibody, human IgG1, kappa, V domains shown)
VH: B1 VH
VL: not shown
modifications: p-azidomethyl-phenylalanine (pAMF) at HC-Y180 and HC-F404 by EU numbering (actual positions 186 and 410 as printed), each linked to the non-cleavable maytansinoid drug-linker (Conjugate M); DAR 4
notes: also called Conjugate 4 ADC; BCMA ADC Conjugate 4
Kd [6]: 1.8 nM
Kd [7]: 2.4 nM
Kd [8]: 3.9 nM
cell killing EC50, NCI-H929, Experiment 1 [9]: 0.8 nM
cell killing EC50, NCI-H929, Experiment 2 [9]: 0.8 nM
cell killing EC50, OPM2, Experiment 1 [9]: 1.7 nM
cell killing EC50, OPM2, Experiment 2 [9]: 1.8 nM
cell killing EC50, U266B1, Experiment 1 [9]: 0.8 nM
cell killing EC50, U266B1, Experiment 2 [9]: 0.9 nM
Kd [10]: 1.2 nM
cell killing EC50, ARP-1, no competing reagent [11]: 0.7 nM
cell killing EC50, NCI-H929, no competing reagent [11]: 0.9 nM
cell killing EC50, OPM2, no competing reagent [11]: 3.3 nM
cell killing EC50, U266B1, no competing reagent [11]: 0.9 nM
cell killing EC50, NCI-H929, Experiment 1 [12]: 0.7 nM
cell killing EC50, NCI-H929, Experiment 2 [12]: 0.8 nM
cell killing EC50, OPM2, Experiment 1 [12]: 1.7 nM
cell killing EC50, OPM2, Experiment 2 [12]: 2 nM
cell killing EC50, U266B1, Experiment 1 [12]: 0.7 nM
cell killing EC50, U266B1, Experiment 2 [12]: 0.8 nM
Kd [13]: 1.6 nM
binding result [14]: no binding (tested: 67 nM)
Kd [15]: 2.3 nM
cell killing EC50, ARP-1 [16]: 0.7 nM
cell killing EC50, MM.1S [16]: 0.82 nM
cell killing EC50, NCI-H929 [16]: 0.8 nM
cell killing EC50, OPM-2 [16]: 2.1 nM
cell killing EC50, U266B1 [16]: 0.86 nM
Kd [17]: 2.7 nM
binding result [18]: no binding (tested: titrated from 200 nM)
binding result [19]: no binding (tested: 67 nM)

B3: 2265-F02 Y180/F404 (unconjugated Ab), unconjugated antibody version of Conjugate 4 (antibody, human IgG1, kappa, V domains shown)
VH: B1 VH
VL: not shown
modifications: p-azidomethyl-phenylalanine (pAMF) replacing HC-Y180 and HC-F404 by EU numbering (actual positions 186 and 410 as printed)
notes: Aglycosylated humanized IgG1
Kd [6]: 1.3 nM
Kd [10]: 1 nM
Kd [13]: 0.9 nM
Kd [15]: 1.3 nM
Kd [20]: 2.1 nM
Kd [17]: 2.8 nM
Kd [21]: 0.9 nM
binding result [18]: no binding (tested: titrated from 200 nM)
